In assay [1] the target is T1, MBP-Ync13-(591–1130)-6His (S. pombe, UniProt O13683 591-1130).
T1 construct: The cloning of this fragment is not described; not shown: MBP, N-terminal, kept; His6, C-terminal, kept
T1 sequence (looked up): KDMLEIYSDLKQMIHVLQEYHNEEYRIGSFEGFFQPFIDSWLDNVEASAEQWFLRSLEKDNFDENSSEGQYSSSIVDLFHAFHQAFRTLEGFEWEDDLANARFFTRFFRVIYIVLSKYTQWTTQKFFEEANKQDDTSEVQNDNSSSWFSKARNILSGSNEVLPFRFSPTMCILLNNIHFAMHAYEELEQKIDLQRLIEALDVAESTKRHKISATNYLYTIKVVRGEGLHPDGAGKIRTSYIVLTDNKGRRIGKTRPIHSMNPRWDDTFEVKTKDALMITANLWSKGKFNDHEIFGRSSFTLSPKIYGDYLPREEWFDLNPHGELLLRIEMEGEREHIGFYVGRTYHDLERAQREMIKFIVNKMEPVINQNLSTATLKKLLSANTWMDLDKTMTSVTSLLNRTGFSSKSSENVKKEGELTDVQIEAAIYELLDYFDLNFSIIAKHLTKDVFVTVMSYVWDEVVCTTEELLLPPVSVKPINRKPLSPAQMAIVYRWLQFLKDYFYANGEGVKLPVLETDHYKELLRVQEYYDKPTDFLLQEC
As to the kind of experiment: pull-down; Kd by depletion of the supernatant: various concentrations of MBP-Ync13 proteins immobilised on amylose beads with a fixed low concentration of Pmo25-(19–329)-6His, 1 h at 4°C; supernatant on SDS-PAGE, Coomassie Blue; one site binding equation. Conditions: both partners purified.

Assay [2] has as its target T2, MBP-Ync13-full length-6His (S. pombe, UniProt O13683 1-1237).
T2 construct: cloned in pET21a-MBP between the MBP-TEV-GGSGGS fragment and the C-terminal 6xHis tag; A TEV site and a GGSGGS linker stand between MBP and Ync13; also called MBP-tagged full length Ync13; not shown: MBP, N-terminal, kept; His6, C-terminal, kept
T2 sequence (looked up): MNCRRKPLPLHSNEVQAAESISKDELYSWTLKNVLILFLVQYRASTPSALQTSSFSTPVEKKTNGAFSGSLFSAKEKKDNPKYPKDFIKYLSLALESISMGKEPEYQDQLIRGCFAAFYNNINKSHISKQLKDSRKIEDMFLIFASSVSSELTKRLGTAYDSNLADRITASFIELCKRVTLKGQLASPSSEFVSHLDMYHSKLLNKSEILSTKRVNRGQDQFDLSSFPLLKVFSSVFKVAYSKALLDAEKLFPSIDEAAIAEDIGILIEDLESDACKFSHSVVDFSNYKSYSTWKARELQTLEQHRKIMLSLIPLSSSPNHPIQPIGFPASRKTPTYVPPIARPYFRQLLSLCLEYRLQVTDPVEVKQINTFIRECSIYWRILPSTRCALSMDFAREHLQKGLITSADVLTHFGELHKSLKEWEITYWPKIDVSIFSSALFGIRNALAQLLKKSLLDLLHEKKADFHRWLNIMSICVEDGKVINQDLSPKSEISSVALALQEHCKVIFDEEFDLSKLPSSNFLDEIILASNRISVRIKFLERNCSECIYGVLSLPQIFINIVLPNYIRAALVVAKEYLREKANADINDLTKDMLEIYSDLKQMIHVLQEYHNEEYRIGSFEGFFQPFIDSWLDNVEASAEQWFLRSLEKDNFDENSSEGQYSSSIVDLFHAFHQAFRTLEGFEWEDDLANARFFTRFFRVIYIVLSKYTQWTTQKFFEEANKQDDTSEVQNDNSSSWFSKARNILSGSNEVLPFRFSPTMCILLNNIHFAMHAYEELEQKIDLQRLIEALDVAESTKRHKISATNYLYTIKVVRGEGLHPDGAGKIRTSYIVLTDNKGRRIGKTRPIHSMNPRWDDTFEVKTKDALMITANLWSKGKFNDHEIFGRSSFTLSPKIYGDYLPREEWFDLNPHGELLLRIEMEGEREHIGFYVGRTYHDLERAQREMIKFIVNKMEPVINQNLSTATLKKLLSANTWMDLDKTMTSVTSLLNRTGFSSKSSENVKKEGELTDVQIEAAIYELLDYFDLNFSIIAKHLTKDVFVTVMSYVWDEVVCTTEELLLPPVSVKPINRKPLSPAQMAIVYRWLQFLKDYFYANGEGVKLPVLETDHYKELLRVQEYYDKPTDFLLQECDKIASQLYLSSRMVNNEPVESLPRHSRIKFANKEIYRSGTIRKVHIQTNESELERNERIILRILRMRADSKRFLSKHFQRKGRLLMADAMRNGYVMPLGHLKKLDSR
Described as above. To be noted: both partners purified.

B1: Pmo25-(19–329)-6His (domain or fragment, S. pombe, UniProt Q9P7Q8 19-329, looked up)
chain: LCDNLPKLEINNDKKKSFEEVSKCLQNLRVSLCGTAEVEPDADLVSDLSFQIYQSNLPFLLVRYLPKLEFESKKDTGLIFSALLRRHVASRYPTVDYMLAHPQIFPVLVSYYRYQEVAFTAGSILRECSRHEALNEVLLNSRDFWTFFSLIQASSFDMASDAFSTFKSILLNHKSQVAEFISYHFDEFFKQYTVLLKSENYVTKRQSLKLLGEILLNRANRSVMTRYISSAENLKLMMILLRDKSKNIQFEAFHVFKLFVANPEKSEEVIEILRRNKSKLISYLSAFHTDRKNDEQFNDERAFVIKQIERL
notes: in pET21a between the N-terminal T7 tag and the C-terminal 6xHis tag; not shown: His6, C-terminal, kept
On to B1, for which the Kd in assay [1] was 620 nM; in assay [2] it was 490 nM.

What is called Kd is the equilibrium constant for the complex coming apart.

Values taken from paper PMC12803953, “The MO25 protein Pmo25 functions in contractile ring stability and Sid2 localization during cytokinesis” (iScience, 2025).
